Reference: US20210253718A1, “FRIZZLED5 PROTEIN-BINDING AGENTS” (Modmab Therapeutics Corporation, priority 2016, published 2021)

Target: T1, FZD9 CRD (Homo sapiens, UniProt O00144)
T1 construct: G35-A161; GPI anchor signal (C); expressed in transfected cells; host or cells: CHO cells, lentiviral pLenti-puro
T1 sequence (O00144 35-161): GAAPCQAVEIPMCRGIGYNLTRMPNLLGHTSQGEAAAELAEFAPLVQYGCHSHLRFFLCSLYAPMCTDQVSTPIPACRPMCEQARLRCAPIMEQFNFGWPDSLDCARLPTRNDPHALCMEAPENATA
Assay: Immunofluorescence of anti-FZD5 Fab binding to CHO cells overexpressing Frizzled CRD
Parameters: key: −: no binding; +: very weak binder; ++: weak binder; +++: good binder; ++++: very good binder
Method: Plasmids: pLCKO lentiviral vector used for knockout (TKO) library construction and expression of individual gRNAs was constructed as described previously (Hart et al., 2015). Briefly, single guide RNA (sgRNA) scaffold was amplified from px330 (Addgene 42230) and cloned into pLKO.TRC005 lentiviral vector (Broad Institute, Cambridge, Mass.) using AgeI/EcoRI restriction sites. BfuAI sites were added at the 5′ end of the sgRNA scaffold for cloning the TKO library or individual gRNA target sequences. Lenti Cas9-2A-BsdR vector used to generate Cas9 stable expression cell lines was constructed as described previously (Hart et al., 2015). Briefly, lentiCRISPR pXPR_001 (Addgene 49535) was modified through removal of the sgRNA scaffold region through NdeI/EcoRI digest and blunt ends generation using Large Klenow Fragment (NEB). 2A-puro was replaced with 2A-BsdR by PCR using the NheI/MluI sites. Each of the 10 human Frizzled cysteine rich domains (CRDs) were cloned into the lentiviral expression plasmid pLenti-puro in the following cassette: FZD_CRD-MYC-GPI.
To confirm that the FZD5-WNT7B circuit is not driven simply by expression and rule out the possibility of a disconnect between RNA and protein levels for the Wnt receptors in HPAF-II cells, a panel of recombinant Fabs were generated, alternatively referred to herein as ‘Frizzled profiler’, that can detect and discriminate all but one of the ten Frizzled receptors. […] To characterize the binding specificity of these Fabs on cells, a panel of 10 CHO cell lines was generated, each expressing the CRD domain of a different myc-tagged Frizzled family member anchored at the plasma membrane through a GPI anchor (CHO-myc-FZDGPI). Despite the high sequence identity between Frizzled family members (FIG. 7A, FIG. 7B), selective Fabs were identified for FZD4, FZD5, FZD6 and FZD10 as assessed by immunofluorescence and flow cytometry (FIG. 7D and FIG. 8). […] The FZD8 CRD is most homologous to that of FZD5 (FIG. 7B). These Fabs can be used to discriminate expression of FZD1, FZD2, FZD4, FZD5, FZD6, FZD7, FZD8, FZD9 and FZD10 (FIG. 7D and FIG. 8). The ‘Frizzled profiler’ therefore consists of 10 different Fabs that can be used to discriminate expression of 9 different Frizzled family members. The Frizzled profiler was then used to confirm that HPAF-II cells express FZD1, FZD5, FZD6 and possibly FZD8 (FIG. 7E).
The binding of anti-FZD5 Fabs to cell surface-expressed Frizzled protein was further determined for each member of the Frizzled family via flow cytometry and immunofluorescence analysis of a panel of 10 CHO cell lines, each ectopically over-expressing the extracellular cysteine-rich domain (CRD) of a different Frizzled protein family member.

Substance: Fab-2931: anti-FZD5 Fab with antibody variable region Fv-2931; CDR SEQ ID NOs: 35, 36, 70, 102, 146, 176 (CDR 1 QSVSSA; CDR 2 SAS; CDR 3 QQSSYSLIT; CDR 4 GFNLSYSS; CDR 5 ISPYSGST; CDR 6 ARGSYWYVGGGWWVSGHGGMDY)
- Immunofluorescence binding, Frizzled CRD overexpressed on CHO cells: FZD9: −
